Residue numbers refer to the chain shown, from its start.

The labels stand for the following.
B1: PS3B912 (bispecific antibody, human IgG1, lambda, L234A L235A)
heavy 1: QVQLQQSGPRLVRPSQTLSLTCAISGDSVFNNNAAWSWIRQSPSRGLEWLGRTYYRSKWLYDYAVSVKSRITVNPDTSRNQFTLQLNSVTPEDTALYYCARGYSSSFDYWGQGTLVTVSSASTKGPSVFPLAPSSKSTSGGTAALGCLVKDYFPEPVTVSWNSGALTSGVHTFPAVLQSSGLYSLSSVVTVPSSSLGTQTYICNVNHKPSNTKVDKKVEPKSCDKTHTCPPCPAPEAAGGPSVFLFPPKPKDTLMISRTPEVTCVVVSVSHEDPEVKFNWYVDGVEVHNAKTKPREEQYNSTYRVVSVLTVLHQDWLNGKEYKCKVSNKALPAPIEKTISKAKGQPREPQVYTLPPSREEMTKNQVSLTCLVKGFYPSDIAVEWESNGQPENNYKTTPPVLDSDGSFLLYSKLTVDKSRWQQGNVFSCSVMHEALHNHYTQKSLSLSPG
light 1: QSALTQPASVSGSPGQSITISCTGTSSNIGTYKFVSWYQQHPDKAPKVLLYEVSKRPSGVSSRFSGSKSGNTASLTISGLQAEDQADYHCVSYAGSGTLLFGGGTKLTVLGQPKAAPSVTLFPPSSEELQANKATLVCLISDFYPGAVTVAWKADSSPVKAGVETTTPSKQSNNKYAASSYLSLTPEQWKSHRSYSCQVTHEGSTVEKTVAPTECS
heavy 2: EVQLVESGGGLVQPGGSLRLSCTASGFIFSSYAMSWVRQAPGKGLEWVSAISGGYGAPYYADTVKGRFTISRDNSKNTLYLQMNSLRAEDTAVYYCAKDGVGATPYYFDDWGQGILVTVSSASTKGPSVFPLAPSSKSTSGGTAALGCLVKDYFPEPVTVSWNSGALTSGVHTFPAVLQSSGLYSLSSVVTVPSSSLGTQTYICNVNHKPSNTKVDKKVEPKSCDKTHTCPPCPAPEAAGGPSVFLFPPKPKDTLMISRTPEVTCVVVSVSHEDPEVKFNWYVDGVEVHNAKTKPREEQYNSTYRVVSVLTVLHQDWLNGKEYKCKVSNKALPAPIEKTISKAKGQPREPQVYTLPPSREEMTKNQVSLTCLVKGFYPSDIAVEWESNGQPENNYKTTPPVLDSDGSFFLYSRLTVDKSRWQQGNVFSCSVMHEALHNHYTQKSLSLSPG
light 2: QSVLTQPPSVSAAPGQKVTISCSGSSSNIGNNYVSWYQQLPGTAPKLLIFDNNKRPSGIPDRFSGSKSGTSATLGITGLQTGDEADYYCGTWDSSLSAYVFGTGTKVTVLGQPKAAPSVTLFPPSSEELQANKATLVCLISDFYPGAVTVAWKADSSPVKAGVETTTPSKQSNNKYAASSYLSLTPEQWKSHRSYSCQVTHEGSTVEKTVAPTECS
B2: PS3B918 (bispecific antibody, human IgG1, lambda, L234A L235A)
heavy 1: B1 heavy 1
light 1: B1 light 1
heavy 2: EVQLVESGGGLVKPGGSLRLSCAASGFTFSRYNMNWVRQAPGKGLEWVSSINSNSRYIYYADSVKGRFTISRDSAKNSLYLQMNSLRAEDTAVYYCAKTMGDYYYYYGMDVWGQGTTVTVSSASTKGPSVFPLAPSSKSTSGGTAALGCLVKDYFPEPVTVSWNSGALTSGVHTFPAVLQSSGLYSLSSVVTVPSSSLGTQTYICNVNHKPSNTKVDKKVEPKSCDKTHTCPPCPAPEAAGGPSVFLFPPKPKDTLMISRTPEVTCVVVSVSHEDPEVKFNWYVDGVEVHNAKTKPREEQYNSTYRVVSVLTVLHQDWLNGKEYKCKVSNKALPAPIEKTISKAKGQPREPQVYTLPPSREEMTKNQVSLTCLVKGFYPSDIAVEWESNGQPENNYKTTPPVLDSDGSFFLYSRLTVDKSRWQQGNVFSCSVMHEALHNHYTQKSLSLSPG
light 2: SSELTQPPSVSGAPGQRVTISCAGSLSNIGAGYDVHWYQQLPGTAPKLLIYGNINRLSGVPERFSGSKSGTSASLAITGLQAEDGADYYCQSYDSSLSSYVFGTGTKVTVLGQPKAAPSVTLFPPSSEELQANKATLVCLISDFYPGAVTVAWKADSSPVKAGVETTTPSKQSNNKYAASSYLSLTPEQWKSHRSYSCQVTHEGSTVEKTVAPTECS
B3: PS3B921 (bispecific antibody, human IgG1, lambda, L234A L235A)
heavy 1: B1 heavy 1
light 1: B1 light 1
heavy 2: B1 heavy 2 with T23A, I28T, Y55I, A57S, P58T, T63S, Y80W, D110Y, I115T
light 2: B1 light 2 with N31I, F50Y, Y99V, T103G, V107L
B4: PS3B920 (bispecific antibody, human IgG1, lambda, L234A L235A)
heavy 1: B1 heavy 1
light 1: B1 light 1
heavy 2: B1 heavy 2 with T23A, I28T, Y55S, A57S, P58T, T63S, T91S, D110Y, I115T
light 2: B1 light 2 with F50Y
B5: PS3B922 (bispecific antibody, human IgG1, lambda, L234A L235A)
heavy 1: B1 heavy 1
light 1: B1 light 1
heavy 2: B1 heavy 2 with T23A, I28T, Y55S, A57S, P58T, T63S, T91S, D110Y, I115T
light 2: B1 light 2 with N31I, F50Y, Y99V, T103G, V107L
B6: PS3B931 (bispecific antibody, human IgG1, kappa, lambda, L234A L235A)
heavy 1: EVQLVESGGGLVKPGGSLRLSCAASGFTFSRYNMNWVRQAPGKGLEWVSSISTSSNYIYYADSVKGRFTFSRDNAKNSLDLQMSGLRAEDTAIYYCTRGWGPFDYWGQGTLVTVSSASTKGPSVFPLAPSSKSTSGGTAALGCLVKDYFPEPVTVSWNSGALTSGVHTFPAVLQSSGLYSLSSVVTVPSSSLGTQTYICNVNHKPSNTKVDKKVEPKSCDKTHTCPPCPAPEAAGGPSVFLFPPKPKDTLMISRTPEVTCVVVSVSHEDPEVKFNWYVDGVEVHNAKTKPREEQYNSTYRVVSVLTVLHQDWLNGKEYKCKVSNKALPAPIEKTISKAKGQPREPQVYTLPPSREEMTKNQVSLTCLVKGFYPSDIAVEWESNGQPENNYKTTPPVLDSDGSFLLYSKLTVDKSRWQQGNVFSCSVMHEALHNHYTQKSLSLSP
light 1: DIQMTQSPSSLSASVGDRVTITCRARQSIGTAIHWYQQKPGKAPKLLIKYASESISGVPSRFSGSGSGTDFTLTISSLQPEDFATYYCQQSGSWPYTFGQGTKLEIKRTVAAPSVFIFPPSDEQLKSGTASVVCLLNNFYPREAKVQWKVDNALQSGNSQESVTEQDSKDSTYSLSSTLTLSKADYEKHKVYACEVTHQGLSSPVTKSFNRGEC
heavy 2: B2 heavy 2
light 2: B2 light 2
B7: PS3B926 (bispecific antibody, human IgG1, kappa, lambda, L234A L235A)
heavy 1: B6 heavy 1
light 1: B6 light 1
heavy 2: not shown
light 2: not shown
B8: PS3B928 (bispecific antibody, human IgG1, kappa, lambda, L234A L235A)
heavy 1: B6 heavy 1
light 1: B6 light 1
heavy 2: not shown
light 2: not shown

For one test, the target named is Human PSMA on prostate cancer cell lines (C4-2B, 22RV1) (human, UniProt Q04609 1-750). As to the kind of experiment: cell-based or functional assay.
Chain of Human PSMA on prostate cancer cell lines (C4-2B, 22RV1) (Q04609 whole entry): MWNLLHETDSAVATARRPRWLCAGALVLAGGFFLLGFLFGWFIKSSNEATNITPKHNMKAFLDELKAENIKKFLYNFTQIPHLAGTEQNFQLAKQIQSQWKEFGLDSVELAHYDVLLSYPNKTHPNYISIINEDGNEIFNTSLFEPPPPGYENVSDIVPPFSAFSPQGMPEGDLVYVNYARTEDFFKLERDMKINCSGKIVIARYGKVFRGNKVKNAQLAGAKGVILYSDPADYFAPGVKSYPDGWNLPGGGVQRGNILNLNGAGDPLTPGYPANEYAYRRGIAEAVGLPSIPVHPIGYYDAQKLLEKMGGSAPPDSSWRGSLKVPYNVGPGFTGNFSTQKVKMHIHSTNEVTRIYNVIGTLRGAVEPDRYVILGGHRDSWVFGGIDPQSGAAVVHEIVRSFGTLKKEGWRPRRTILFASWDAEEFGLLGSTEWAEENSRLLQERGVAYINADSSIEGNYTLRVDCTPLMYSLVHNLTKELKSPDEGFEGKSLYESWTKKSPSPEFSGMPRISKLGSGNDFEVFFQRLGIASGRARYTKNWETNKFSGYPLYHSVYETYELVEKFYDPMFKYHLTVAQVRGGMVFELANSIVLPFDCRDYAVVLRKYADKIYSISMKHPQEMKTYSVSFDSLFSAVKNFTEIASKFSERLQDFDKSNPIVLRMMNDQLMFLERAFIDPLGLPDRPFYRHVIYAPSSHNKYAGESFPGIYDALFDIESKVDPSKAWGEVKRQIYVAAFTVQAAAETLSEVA
Take B1: the “Tumor killing EC50 [M] (C4-2B + PAN-T cells, 72 h, flow cytometry)” value turned out to be 6.51e-11 M.
B2: the “Tumor killing EC50 [M] (C4-2B + PAN-T cells, 72 h, flow cytometry)” value turned out to be 1e-08 M.
Still for that read-out and setting: to B3 belongs 3.11e-11 M.
Same read-out and setting: to B4 belongs 3.2e-09 M; to B5, 7.79e-11 M; to B6, 1e-08 M.
Same read-out and setting: to B7 belongs 4.78e-11 M; to B8, 4.81e-10 M.

A further test deals with Human CD3 on T cells / Jurkat cells (human, UniProt P07766 23-207). Nature of the test: cell-based or functional assay.
Chain of Human CD3 on T cells / Jurkat cells (P07766 23-207 limits assumed): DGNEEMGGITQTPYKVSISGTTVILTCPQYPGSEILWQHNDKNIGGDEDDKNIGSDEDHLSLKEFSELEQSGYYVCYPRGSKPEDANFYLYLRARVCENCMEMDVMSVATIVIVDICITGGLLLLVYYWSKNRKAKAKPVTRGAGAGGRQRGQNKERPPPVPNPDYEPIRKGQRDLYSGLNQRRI
As to B1, the “T cell activation EC50 [M] (CD25+ T cells, C4-2B co-culture, 72 h)” value (“T cell activation EC50 [M]” below) stood at 4.73e-11 M.
On the same count and under the same terms, to B2 belongs 1e-08 M; to B3, 2.11e-11 M.
On the same count and under the same terms, then B4, with 1.77e-09 M; and B5, with 5.85e-11 M.
Take B6: the “T cell activation EC50 [M]” value is 1e-08 M.
As for B7, the “T cell activation EC50 [M]” value was found to be 3.45e-11 M.
Still for that read-out and setting: then B8, with 1.84e-10 M.

The values are drawn from US20240059789A1 (Janssen / Centocor, published 2024).
